What was measured:
[1] = biological target: mouse LHR endogenously expressed in mLTC-1 cells (mouse (endogenous in mLTC-1)) (UniProt P30730)
[2] = biological target: human LH/CGR (wild type, without BRET fusion) (human) (UniProt P22888)
[3] = biological target: hLH/CGR C-terminally fused to the BRET donor Rluc8 (human) (UniProt P22888)

UniProt P30730, sequence (P30730 27-700): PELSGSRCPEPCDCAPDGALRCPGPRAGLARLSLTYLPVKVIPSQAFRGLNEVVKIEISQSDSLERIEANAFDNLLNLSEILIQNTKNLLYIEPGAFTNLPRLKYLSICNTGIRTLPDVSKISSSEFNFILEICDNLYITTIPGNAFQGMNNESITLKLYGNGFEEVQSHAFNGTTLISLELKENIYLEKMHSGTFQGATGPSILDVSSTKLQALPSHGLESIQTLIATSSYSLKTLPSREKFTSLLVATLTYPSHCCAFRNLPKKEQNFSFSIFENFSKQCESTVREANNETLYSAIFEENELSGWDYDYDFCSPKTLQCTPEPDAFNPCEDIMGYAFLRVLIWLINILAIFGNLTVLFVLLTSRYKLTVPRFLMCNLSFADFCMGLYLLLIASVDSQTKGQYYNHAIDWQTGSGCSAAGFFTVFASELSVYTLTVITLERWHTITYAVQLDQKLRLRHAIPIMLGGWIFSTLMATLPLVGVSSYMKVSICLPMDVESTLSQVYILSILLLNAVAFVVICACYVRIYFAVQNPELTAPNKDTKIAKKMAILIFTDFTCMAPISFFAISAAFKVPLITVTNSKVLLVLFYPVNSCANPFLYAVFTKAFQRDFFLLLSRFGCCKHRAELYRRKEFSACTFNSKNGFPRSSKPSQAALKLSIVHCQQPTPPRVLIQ

Cre-reporter assay (pSOM-Luc luciferase) in mLTC-1 cells, 6 hours with increasing doses; EC50 [1] [pM]	cAMP (BRET sensor CAMYEL) in mLTC-1 cells, 30 minutes with increasing doses; EC50 [1] [pM]	cAMP (HTRF) in native mLTC-1 cells, 30 minutes with increasing doses; EC50 [1] [pM]	progesterone production by mLTC-1 cells (ELISA of supernatants), 3 hours with increasing doses; EC50 [1] [pM]	testosterone production by mLTC-1 cells (HTRF of supernatants), 3 hours with increasing doses; EC50 [1] [pM]	Cre-reporter assay (pSOM-Luc luciferase) in HEK293 cells expressing hLH/CGR, 6 hours with increasing doses; EC50 [2] [pM]	cAMP production (BRET sensor CAMYEL) in HEK293 cells expressing hLH/CGR, 30 minutes with increasing doses; EC50 [2] [pM]	β-arrestin 2 recruitment (BRET between hLH/CGR-Rluc8 and yPET-β-arrestin 2) in HEK293 cells, 30 minutes with increasing doses; EC50 [3] [pM]	Substance
318	459	1980	306	29.1	215	286	129000	human recombinant luteinizing hormone rhLH (Luveris) (from UniProt P01215 25-116; P01229 21-141) (ligand)
25	68.8	97.4	19.7	2.19	37.5	17.6	10300	recombinant human chorionic gonadotropin rhCG (Ovitrelle) (from UniProt P01215 25-116; P0DN86 21-165) (ligand)
